From US11332512B2, “Peptides and combination of peptides for use in immunotherapy against various tumors” (Immatics Biotechnologies GmbH, priority 2015, dated 2022)

What follows are substances tested against HLA-A*02:01 (Homo sapiens, UniProt P04439, D140Y/D185E/D98H/E176V/E277Q/G131W/G231S/I119V/I121R/I166T/I218V/L300P/L318F/N151K/N90K/P208A/P217A/Q86G/Q94H/R138H/R169H/T345S) (assay: MHC binding assay: UV-ligand exchange with beta2m ELISA (peptide exchange yield)). Settings: binding to HLA-A*02:01, β2m ELISA.
Source text: Candidate peptides for T cell based therapies according to the present invention were further tested for their MHC binding capacity (affinity). The individual peptide-MHC complexes were produced by UV-ligand exchange, where a UV-sensitive peptide is cleaved upon UV-irradiation, and exchanged with the peptide of interest as analyzed. Only peptide candidates that can effectively bind and stabilize the peptide-receptive MHC molecules prevent dissociation of the MHC complexes. To determine the yield of the exchange reaction, an ELISA was performed based on the detection of the light chain (β2m) of stabilized MHC complexes. The assay was performed as generally described in Rodenko et al. (Rodenko et al., 2006).
96 well MAXISorp plates (NUNC) were coated over night with 2 ug/ml streptavidin in PBS at room temperature, washed 4× and blocked for 1 h at 37° C. in 2% BSA containing blocking buffer. Refolded HLA-A*02:01/MLA-001 monomers served as standards, covering the range of 15-500 ng/ml. Peptide-MHC monomers of the UV-exchange reaction were diluted 100 fold in blocking buffer. Samples were incubated for 1 h at 37° C., washed four times, incubated with 2 ug/ml HRP conjugated anti-β2m for 1 h at 37° C., washed again and detected with TMB solution that is stopped with […]. Absorption was measured at 450 nm. Candidate peptides that show a high exchange yield (preferably higher than 50%, most preferred higher than 75%) are generally preferred for a generation and production of antibodies or fragments thereof, and/or T cell receptors or fragments thereof, as they show sufficient avidity to the MHC molecules and prevent dissociation of the MHC complexes.

Peptide exchange (MHC class I binding score, peptide exchange yield), +++ (= ≥50% = +++):
58 (HLLGEGAFAQV; listed as Homo sapiens) [compound 58]
40 (KIWEELSVLEV; listed as Homo sapiens) [compound 40]
285 (MLLDTVQKV; listed as Homo sapiens) [compound 285]
21 (YLMDDFSSL; listed as Homo sapiens) [compound 21]
23 (ALLSPLSLA; listed as Homo sapiens) [compound 23]
94 (YLDEVAFML; listed as Homo sapiens) [compound 94]
55 (HLFDKIIKI; listed as Homo sapiens) [compound 55]
140 (FLDSQITTV; listed as Homo sapiens) [compound 140]
125 (AALEVLAEV; listed as Homo sapiens) [compound 125]
132 (ALLNNVIEV; listed as Homo sapiens) [compound 132]
183 (ALSYILPYL; listed as Homo sapiens) [compound 183]
5 (GLVDIMVHL; listed as Homo sapiens) [compound 5]
131 (SLYPHFTLL; listed as Homo sapiens) [compound 131]
160 (TLQEWLTEV; listed as Homo sapiens) [compound 160]
80 (VLTGQVHEL; listed as Homo sapiens) [compound 80]
217 (LLWPSSVPA; listed as Homo sapiens) [compound 217]
286 (FLTEMVHFI; listed as Homo sapiens) [compound 286]
213 (ILAVDGVLSV; listed as Homo sapiens) [compound 213]
165 (SLLDYEVSI; listed as Homo sapiens) [compound 165]
30 (IITEVITRL; listed as Homo sapiens) [compound 30]
193 (ALFHMNILL; listed as Homo sapiens) [compound 193]
223 (ALHPVQFYL; listed as Homo sapiens) [compound 223]
248 (VLMQDSRLYL; listed as Homo sapiens) [compound 248]
150 (VLLDMVHSL; listed as Homo sapiens) [compound 150]
144 (FLISQTPLL; listed as Homo sapiens) [compound 144]
10 (QLIEKNWLL; listed as Homo sapiens) [compound 10]
31 (GLLETTGLLAT; listed as Homo sapiens) [compound 31]
24 (KVWSDVTPL; listed as Homo sapiens) [compound 24]
147 (GLLSALENV; listed as Homo sapiens) [compound 147]
41 (IVTEIISEI; listed as Homo sapiens) [compound 41]
261 (GLAALAVHL; listed as Homo sapiens) [compound 261]
182 (GLQDGFQITV; listed as Homo sapiens) [compound 182]
60 (YLFSQGLQGL; listed as Homo sapiens) [compound 60]
76 (FTAEFLEKV; listed as Homo sapiens) [compound 76]
253 (KLLAVIHEL; listed as Homo sapiens) [compound 253]
95 (KLIDEDEPLFL; listed as Homo sapiens) [compound 95]
11 (LLDPKTIFL; listed as Homo sapiens) [compound 11]
251 (LLWGNLPEI; listed as Homo sapiens) [compound 251]
274 (TLYNPERTITV; listed as Homo sapiens) [compound 274]
265 (FLLDKPQDLSI; listed as Homo sapiens) [compound 265]
48 (KISDFGLATV; listed as Homo sapiens) [compound 48]
181 (LLWAPTAQA; listed as Homo sapiens) [compound 181]
44 (AVFNLVHVV; listed as Homo sapiens) [compound 44]
87 (KLLSLLEEA; listed as Homo sapiens) [compound 87]
109 (ILGSFELQL; listed as Homo sapiens) [compound 109]
277 (KLQEELNKV; listed as Homo sapiens) [compound 277]
214 (ALFETLIQL; listed as Homo sapiens) [compound 214]
168 (VIFEGEPMYL; listed as Homo sapiens) [compound 168]
179 (TLGEIIKGV; listed as Homo sapiens) [compound 179]
98 (FVQEKIPEL; listed as Homo sapiens) [compound 98]
